Experimental data published in patent US20110311517A1 (SHENOGEN PHARMA GROUP, published 2011).

T1: recombinant human ERα36 (hER-α36, SEQ ID NO:1) expressed in HEK293 cells (human, UniProt P03372 174-457)
T1 construct: Present in lysates of ERα36-expressing HEK293 cells, separated by SDS-PAGE and blotted on PVDF (Western blot); also called recombinant ERα36
T1 sequence: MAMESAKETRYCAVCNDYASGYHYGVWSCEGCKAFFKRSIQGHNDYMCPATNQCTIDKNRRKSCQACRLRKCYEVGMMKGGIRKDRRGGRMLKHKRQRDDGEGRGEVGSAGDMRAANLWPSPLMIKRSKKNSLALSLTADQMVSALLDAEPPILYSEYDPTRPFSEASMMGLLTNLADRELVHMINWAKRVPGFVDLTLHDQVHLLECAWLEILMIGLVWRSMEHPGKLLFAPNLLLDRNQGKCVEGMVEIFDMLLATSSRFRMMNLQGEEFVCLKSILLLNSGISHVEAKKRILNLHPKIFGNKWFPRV

T2: biotinylated ERα36 (chemically synthesised target peptide, SEQ ID NO:2) (human, labeled with biotin (site not stated))
T2 construct: also called biotinylated ER36; biotinylated ERα36 peptides
T2 peptide: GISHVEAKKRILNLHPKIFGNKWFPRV

B1: human anti-ERα36 ScFv6 (purified, re-natured) (scFv)
scFv: EIVMTQSPGTLSLSPGERATLSCRASQSVDSNFLAWYQQRPGQAPRLLIYGVSSSATGIPDRFSGSGSGTDFTLSIDRLEPEDFAVYYCQQYGSSPTFGGGTKLEIKRSGGSTITSYNVYYTKLSSSGTQVQLQESGGGLVQPGRSLRLSCAASGFTFDDYAMHWVRQAPGKGLEWVSGISWNSGSIGYADSVKGRFTISRDNAKNSLYLQMNSLRAEDTAVYYCARSGDYGAFDIWGQGTMVTVSSAS
notes: also called S66; S66A1r1
B2: human anti-ERα36 ScFv7 (purified, re-natured) (scFv)
scFv: QSVLTQPPSVSAAPGQKVTISCSGSSSNIGNNYVSWYQQLPGTAPKLLIYDNNKRPSGIPDRFSGSKSGTSATLGITGLQTGDEADYYCGTWDSSLSAGVFGGGTKLTVLGSGGSTITSYNVYYTKLSSSGTEVQLVQSGGGLVQPGRSLRLSCAASGFTFDDYAMHWVRQAPGKGLEWVSGISWNSGSIGYADSVKGRFTISRDNAKNSLYLQMNSLRAEDTALYYCAKEGDSSGWSPDYWGQGTLVTVSSAS
notes: also called S72; S72A2r1
B3: phage-displayed ScFv7 (phage clone 12) (scFv)
scFv: B2 scFv
notes: The phage coat protein fusion partner is not described; also called phage single clone No. 12
B4: human anti-ERα36 ScFv3 (purified, re-natured) (scFv)
scFv: QSVLTQPASVSGSPGQSITISCTGTSSDVGGYNYVSWYQQHPGKAPKLMIYDVSKRPSGVSNRFSGSKSGNTASLTISGLQAEDEADYYCSSYTSSSTLVFGGGTKLTVLGSGGSTITSYNVYYTKLSSSGTEVQLVQSGGGVAQPGRSLRLSCAASGITFNSYGMHWVRQAPGKGLEWVAVMPYDGSNEYYADSVKGRFTISRDNSKNTLYLQMNSLRAEDTAVYYCAKGSGMVQLWADAFDVWGQGTMVTVSSAS
notes: also called S33; S33A2r1
B5: human anti-ERα36 ScFv2 (purified, re-natured) (scFv)
scFv: QSALTQPASVSGSPGQSITISCTGTSSDVGGYNYVSWYQQHPGKAPKLMIYDVSKRPSGVSNRFSGSKSGNTASLTISGLQAEDEADYYCSSYTSSSTLVFGGGTKLTVLGSGGSTITSYNVYYTKLSSSGTQVQLLESGAEVKKPGASVKVSCKASGYTFTAYYMHWVRQAPGQGLEWMAMIDPSGSITSYAQKFQGRVTMSRDTSTSTLYMELSSLRSDDTAVYYCARDLKEGFSVPGAFDIWGQGTMVTVSSAS
notes: also called S24; S24A2r2

How the values were obtained:
[1] = molecular target: T1, recombinant human ERα36 (hER-α36, SEQ …); assay: Western blot on lysates of ERα36-expressing HEK293 cells, anti-His-HRP
Experimental: ScFv1˜ScFv7 obtained after purification and renaturation were characterized using Western Blot. HEK293 cells were artificially constructed to express recombinant ERα36. Human breast cancer cells SK-BR-3 and ERα36-expressing HEK293 cells were cultured, harvested, and lysed by lysis buffer to obtain the cell lysates respectively. 20 μg/lane of the lysates were then loaded for SDS-PAGE. After electrophoresis, the protein samples were electronically transferred to PVDF membrane labeled with ScFv1˜ScFv7 respectively. The membranes were blocked with non-fat milk and anti-His-HRP was added to show the resulting images (FIG. 16).

[2] = molecular target: T2, biotinylated ERα36 (chemically …); assay: phage ELISA, biotinylated ERα36 on neutravidin plate, well 1
Experimental: (§1) Neutravidin-coated plates (purchased from Pierce) were washed with washing buffer (PBS containing 0.1% Tween-20) and all wells of the plates were blocked by incubating in blocking buffer at 4° C. for 1-2 h. Then the blocked plates were taken away from the blocking buffer, washed six times with washing buffer and dried upside-down. Biotinylated ERα36 in PBS (100 μl) was added to each testing well of the plates, incubated for 1-2 h at room temperature and removed. The plates were washed once with washing buffer. Phage solution (100 μl) was added per well and incubated for 1-2 h at room temperature. The plates were washed six times with the washing buffer. HRP-conjugated rabbit anti-M13 antibody (purchased from GE Healthcare) was diluted by 1:5,000 in blocking buffer. The diluted HRP-conjugated rabbit anti-M13 antibody (100 μl) was added to each well and incubated for 1 h at room temperature followed by washing six times with washing buffer.
(§2) HRP substrate solution (100 μl) was added to each testing well and incubated for 30 min at room temperature. The signals were detected using a microplate reader at 490 nm. […] The positive controls were plates coated with M13 phage and detected with HRP-conjugated anti-M13 antibodies.

[3] = molecular target: T2, biotinylated ERα36 (chemically …); assay: phage ELISA, biotinylated ERα36 on neutravidin plate, well 2
Experimental: as §1, §2

[4] = molecular target: T2, biotinylated ERα36 (chemically …); assay: phage ELISA, biotinylated ERα36 on neutravidin plate, well 3
Experimental: as §1, §2

[5] = molecular target: T2, biotinylated ERα36 (chemically …); assay: ELISA on biotinylated ERα36 (streptavidin plate), ScFv 0.28 µg/ml, well 1
Experimental: (§3) Streptavidin-coated 96-well plates were washed twice with PBS. Biotinylated ERα36 (final concentration of 20 μg/ml) was added into each testing well. The plates were incubated for 2 h at room temperature and washed three times with PBST. Re-natured ScFv samples (100 μl, S14A1r1, S24A2r2, S33A2r1, S41A3r3, S53A1r1, S66A1r1 and S72A2r1) were added into the testing wells respectively. Each ScFv was diluted five times in five gradients, and two parallel wells were loaded with each ScFv at each gradient. The plates were incubated at 37° C. for 1 h. The plates were washed three times with PBST, followed by addition of 100 μl anti-His-6 mouse monoclonal antibody (1:2000 dilution) per well and 1 h incubation at 37° C. The plates were washed three times with PBST, followed by addition of 100 μl goat anti-mouse-HRP (1:2500 dilution) per well and 1 h incubation at 37° C. The plates were washed six times with PBST, followed by addition of 100 μl OPD to develop under the protection from light. The reactions were terminated by adding 50 μl 2M H₂SO₄ to each well, and data were collected by microplate reader at 490 nm.
(§4) One positive control and three negative controls were performed in parallel. The positive control used rabbit anti-ER multi-clonal antibody serum in replacement of the ScFv re-natured sample and goat-anti-rabbit-HRP in replacement of goat-anti-mouse HRP.

[6] = molecular target: T2, biotinylated ERα36 (chemically …); assay: ELISA on biotinylated ERα36 (streptavidin plate), ScFv 0.28 µg/ml, well 2
Experimental: as §3, §4

Binder | binding result [1] | ELISA Signal (OD490) [2] [OD490] | ELISA Signal (OD490) [3] [OD490] | ELISA Signal (OD490) [4] [OD490] | OD490 [5] [OD490] | OD490 [6] [OD490]
B1 | binds |  |  |  |  | 
B2 | binds |  |  |  |  | 
B3 |  | 0.381 | 0.388 | 0.383 |  | 
B4 | binds |  |  |  | 0.159 | 0.171
B5 | binds |  |  |  | 0.093 | 0.09
